Assay results from FireProtDB (doi:10.1110/ps.051838206).
“And” between values parts separate entries of the source, which are not always exact repeats. Identical values can stand only once.

B1: Azurin, P00282 (parent)
chain: MLRKLAAVSLLSLLSAPLLAAECSVDIQGNDQMQFNTNAITVDKSCKQFTVNLSHPGNLPKNVMGHNWVLSTAADMQGVVTDGMASGLDKDYLKPDDSRVIAHTKLIGSGEKDSVTFDVSKLKEGEQYMFFCTFPGHSALMKGTLTLK

Variants of: B1
Settings: Pseudomonas aeruginosa (strain ATCC 15692 / DSM 22644 / CIP 104116 / JCM 14847 / LMG 12228 / 1C / PRS 101 / PAO1), pH 7, 25 °C, GdnHCl, Tris-HCl 100 mM, reversible: Yes, structure 5AZU, whole UniProt chain shown

Variant: MLRKLAAVSLLSLLSAPLLAAECSVDIQGNDQMQFNTNAITVDKSCKQFTTNLSHPGNLPKNVMGHNWVLSTAADMQGVVTDGMASGLDKDYLKPDDSRVIAHTKLIGSGEKDSVTFDVSKLKEGEQYMFFCTFPGHSALMKGTLTLK [V51T]
- unfolding free energy (CD): 4.9 kcal/mol and 8.84 kcal/mol
- unfolding free energy (Fluorescence): 4.9 kcal/mol and 8.84 kcal/mol

Variant: MLRKLAAVSLLSLLSAPLLAAECSVDIQGNDQMQFNTNAITVDKSCKQFTVNLSHPGNLPKNVMGHNWVLSTAADMQGVVTDGMASGLDKDYLKPDDSRVAAHTKLIGSGEKDSVTFDVSKLKEGEQYMFFCTFPGHSALMKGTLTLK [I101A]
- ddG of mutation (higher = less stable) (CD): 2.39 kcal/mol
- unfolding free energy (CD): 3.59 kcal/mol
- ddG of mutation (higher = less stable) (Fluorescence): 2.39 kcal/mol
- unfolding free energy (Fluorescence): 3.59 kcal/mol

Variant: MLRKLAAVSLLSLLSAPLLAAECSVDIQGNDQMQFNTNAITVDKSCKQFTVNLSHPGNLPKNVMGHNWVLSTAADMQGVVTDGMASGLDKDYLKPDDSRVVAHTKLIGSGEKDSVTFDVSKLKEGEQYMFFCTFPGHSALMKGTLTLK [I101V]
- unfolding free energy (CD): 5.9 kcal/mol and 12.7 kcal/mol
- unfolding free energy (Fluorescence): 5.9 kcal/mol and 12.7 kcal/mol

Variant: MLRKLAAVSLLSLLSAPLLAAECSVDIQGNDQMQFNTNAITVDKSCKQFTVNLSHPGNLPKNVMGHNWVLSTAADMQGVVTDGMASGLDKDYLKPDDSRVTAHTKLIGSGEKDSVTFDVSKLKEGEQYMFFCTFPGHSALMKGTLTLK [I101T]
- ddG of mutation (higher = less stable) (CD): 2.51 kcal/mol and 3.35 kcal/mol
- unfolding free energy (CD): 3.47 kcal/mol and 9.56 kcal/mol
- ddG of mutation (higher = less stable) (Fluorescence): 2.51 kcal/mol and 3.35 kcal/mol
- unfolding free energy (Fluorescence): 3.47 kcal/mol and 9.56 kcal/mol

Variant: MLRKLAAVSLLSLLSAPLLAAECSVDIQGNDQMQFNTNAITVDKSCKQFTVNLSHPGNLPKNVMGHNWVVSTAADMQGVVTDGMASGLDKDYLKPDDSRVIAHTKLIGSGEKDSVTFDVSKLKEGEQYMFFCTFPGHSALMKGTLTLK [L70V]
- ddG of mutation (higher = less stable) (CD): 0.36 kcal/mol and 0.24 kcal/mol
- unfolding free energy (CD): 5.62 kcal/mol and 12.7 kcal/mol
- ddG of mutation (higher = less stable) (Fluorescence): 0.36 kcal/mol and 0.24 kcal/mol
- unfolding free energy (Fluorescence): 5.62 kcal/mol and 12.7 kcal/mol

Variant: MLRKLAAVSLLSLLSAPLLAAECSVDIQGNDQMQFNTNAITVDKSCKQFTVNLSHPGNLPKNVMGHNWVTSTAADMQGVVTDGMASGLDKDYLKPDDSRVIAHTKLIGSGEKDSVTFDVSKLKEGEQYMFFCTFPGHSALMKGTLTLK [L70T]
- ddG of mutation (higher = less stable) (CD): 2.34 kcal/mol and 2.15 kcal/mol
- unfolding free energy (CD): 3.63 kcal/mol and 10.8 kcal/mol
- ddG of mutation (higher = less stable) (Fluorescence): 2.15 kcal/mol
- unfolding free energy (Fluorescence): 10.8 kcal/mol

Variant: MLRKLAAVSLLSLLSAPLLAAECSVDIQGNDQMQFNTNAITTDKSCKQFTVNLSHPGNLPKNVMGHNWVLSTAADMQGVVTDGMASGLDKDYLKPDDSRVIAHTKLIGSGEKDSVTFDVSKLKEGEQYMFFCTFPGHSALMKGTLTLK [V42T]
- unfolding free energy (CD): 5.02 kcal/mol and 8.6 kcal/mol
- unfolding free energy (Fluorescence): 5.02 kcal/mol and 8.6 kcal/mol

Variant: MLRKLAAVSLLSLLSAPLLAAECSVDIQGNDQMQFNTNAITADKSCKQFTVNLSHPGNLPKNVMGHNWVLSTAADMQGVVTDGMASGLDKDYLKPDDSRVIAHTKLIGSGEKDSVTFDVSKLKEGEQYMFFCTFPGHSALMKGTLTLK [V42A]
- ddG of mutation (higher = less stable) (CD): 1.43 kcal/mol
- unfolding free energy (CD): 4.54 kcal/mol

Variant: MLRKLAAVSLLSLLSAPLLAAECSVDIQGNDQMQFNTNAVTVDKSCKQFTVNLSHPGNLPKNVMGHNWVLSTAADMQGVVTDGMASGLDKDYLKPDDSRVIAHTKLIGSGEKDSVTFDVSKLKEGEQYMFFCTFPGHSALMKGTLTLK [I40V]
- unfolding free energy (CD): 5.59 kcal/mol and 12.9 kcal/mol
- unfolding free energy (Fluorescence): 5.59 kcal/mol and 12.9 kcal/mol

Variant: MLRKLAAVSLLSLLSAPLLAAECSVDIQGNDQMQFNTNATTVDKSCKQFTVNLSHPGNLPKNVMGHNWVLSTAADMQGVVTDGMASGLDKDYLKPDDSRVIAHTKLIGSGEKDSVTFDVSKLKEGEQYMFFCTFPGHSALMKGTLTLK [I40T]
- ddG of mutation (higher = less stable) (CD): 2.39 kcal/mol and 1.91 kcal/mol
- ddG of mutation (higher = less stable) (Fluorescence): 2.39 kcal/mol and 1.91 kcal/mol

Variant: MLRKLAAVSLLSLLSAPLLAAECSVDIQGNDQMQFNTNAATVDKSCKQFTVNLSHPGNLPKNVMGHNWVLSTAADMQGVVTDGMASGLDKDYLKPDDSRVIAHTKLIGSGEKDSVTFDVSKLKEGEQYMFFCTFPGHSALMKGTLTLK [I40A]
- ddG of mutation (higher = less stable) (Fluorescence): 1.55 kcal/mol
- unfolding free energy (Fluorescence): 4.42 kcal/mol

Variant: MLRKLAAVSLLSLLSAPLLAAECSVDIQGNDQMQFNTNAITVDKSCKQFTVNLSHPGNLPKNVMGHNWVLSTAADMQGVVTDGMASGLDKDYLKPDDSRVIAHTKLIGSGEKDSTTFDVSKLKEGEQYMFFCTFPGHSALMKGTLTLK [V115T]
- unfolding free energy (CD): 6.93 kcal/mol and 12.8 kcal/mol
- unfolding free energy (Fluorescence): 6.93 kcal/mol and 12.8 kcal/mol
